Source: doi:10.1101/2024.01.25.576086

What was measured:
[1] = target: biotinylated pVHL-Elongin B-Elongin C complex (bio-VBC) (human) (UniProt P40337); experiment: SPR
VHL-LgBiT (human) = VHL-LgBiT (human) (UniProt P40337)

Substance | KD with compound 4 [1] | HiBiT degradation assay of CDO1 in HEK293T cells with compound 8; absDC50 (VHL-LgBiT (human))
CDO1(Q99N) (from UniProt Q16878 1-200) (enzyme) | > 40 µM | –
SmBiT-CDO1 (from UniProt Q16878 1-200) (enzyme) | – | 8 nM
